Patent CN114671948A

Biological target: A型肉毒毒素 (botulinum toxin type A, sample solution of Example 4) (Clostridium botulinum) (UniProt P0DPI0)
UniProt P0DPI0, sequence (P0DPI0 868-1296 limits assumed): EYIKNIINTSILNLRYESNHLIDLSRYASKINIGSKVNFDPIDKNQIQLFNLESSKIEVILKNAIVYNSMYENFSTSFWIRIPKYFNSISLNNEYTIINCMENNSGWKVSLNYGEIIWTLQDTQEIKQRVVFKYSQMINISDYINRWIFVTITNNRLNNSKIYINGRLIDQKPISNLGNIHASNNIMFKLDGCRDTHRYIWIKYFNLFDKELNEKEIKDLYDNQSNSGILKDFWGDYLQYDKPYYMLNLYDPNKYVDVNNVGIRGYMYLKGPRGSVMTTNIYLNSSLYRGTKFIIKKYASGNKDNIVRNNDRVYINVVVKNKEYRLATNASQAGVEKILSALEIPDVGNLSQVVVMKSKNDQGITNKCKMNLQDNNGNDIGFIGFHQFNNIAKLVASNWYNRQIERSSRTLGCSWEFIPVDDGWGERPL

B1: BoNT/AHc单克隆抗体细胞株1103 (monoclonal antibody of hybridoma cell line 1103) (antibody)
VH: LTMNFGLSWVFLLTLLHGFQCEVKLVKSGGGSVQPGGSLRLSCTTSGFTFSDSYMQWVRQPLGKRLEWITAGRHKANEYTTEWSASTRGRFIVSRDTSQSILNLQMNALRTEDPAISYCARDDCPHFILPRSYYFFDIWGAGTTVTVSSAKTTPPSVYPLAPVCGG
VL: DIVLTQSPASLAVSLGQRATISYRPSKSVSTSRYSYMHWNQQKPGQPPRLLIYLESNLASGVPARFSGSGSGTDFTLNIHPVEEEDAATYYCQLITELTRSEGGPSWKYNGLMLHQLYP
For B1, the 检测限 (detection limit of the sandwich test) was 20 ng/mL.

B2: BoNT/AHc单克隆抗体细胞株401 (monoclonal antibody of hybridoma cell line 401) (antibody)
VH: LTMDFGLSLVFLVLTLKGVKCEVQLVESGGGLVKPGGSLKLSCAASGFAFSTSDMSWVRQTPEKRLEWVTYITSGAGNTNYPDTVKGRFTISRDNAKNTLYVQMSSLKSEDTAMYYCARQSRWSLALDYWGQGTLVTVSAAKTTPPSVYPLAPVCGG
VL: LTMETDTLLLWVLLLWVPGSTGDIVLTQSPASLAVSLGQRATISYRGSNSVSISAYSYMHWNQQKPGQPPRLLIYLVWNQESGVPARFSGSGSGTDFTLNIHPVEEEDAATYYCQHITELTRSEGGPSWKSNGLMLHQLYPSPTIQ
B2 was tested, and the 检测限 (detection limit of the sandwich test) was 20 ng/mL.
